Common to all, as to test: two-hybrid library CCNG1;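 further: natural log of median RNA to DNA barcode read ratio; higher means stronger binding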
The target of one test is T1, P5bH1.
T1 chain: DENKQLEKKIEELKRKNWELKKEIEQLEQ

Another test deals with T2, P9bH1.
T2 chain: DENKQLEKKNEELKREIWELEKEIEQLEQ

The target in the next test is T3, P2bH1.
T3 chain: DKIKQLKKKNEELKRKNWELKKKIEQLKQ

A further test concerns the target T4, P1bH1.
T4 chain: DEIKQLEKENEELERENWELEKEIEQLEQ

The target in another test is T5, P8bH1.
T5 chain: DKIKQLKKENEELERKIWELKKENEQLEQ

The target in a further test is T6, P4bH1.
T6 chain: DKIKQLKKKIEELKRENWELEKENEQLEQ

A further test addresses T7, P12bH1.
T7 chain: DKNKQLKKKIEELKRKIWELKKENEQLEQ

Another test has as its target T8, P6bH1.
T8 chain: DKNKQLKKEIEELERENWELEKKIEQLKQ

In a further test the target is T9, P11bH1.
T9 chain: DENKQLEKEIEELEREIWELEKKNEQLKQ

The target in the next test is T10, P7bH1.
T10 chain: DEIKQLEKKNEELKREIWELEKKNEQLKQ

The next test has as its target T11, P3bH1.
T11 chain: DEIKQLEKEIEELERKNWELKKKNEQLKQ

A further test addresses T12, 4H3926-bA.
T12 chain: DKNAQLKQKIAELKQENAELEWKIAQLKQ

A further test deals with T13, 4H953-bA.
T13 chain: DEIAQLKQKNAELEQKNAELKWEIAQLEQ

For the next test, the target named is T14, 4H2586-bA.
T14 chain: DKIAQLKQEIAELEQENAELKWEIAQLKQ

Another test concerns the target T15, 4H3427-bA.
T15 chain: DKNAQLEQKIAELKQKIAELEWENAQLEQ

The next test concerns the target T16, 4H3907-bN.
T16 chain: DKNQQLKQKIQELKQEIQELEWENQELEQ

The target in another test is T17, 4H918-bA.
T17 chain: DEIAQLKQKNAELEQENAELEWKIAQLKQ

A further test deals with T18, 4H3112-bA.
T18 chain: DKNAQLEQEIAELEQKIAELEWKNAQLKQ

The target in a further test is T19, 4H575-bA.
T19 chain: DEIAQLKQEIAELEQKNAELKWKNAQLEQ

The target in the next test is T20, 4H797-bA.
T20 chain: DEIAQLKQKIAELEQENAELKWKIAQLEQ

Another test concerns the target T21, 4H968-bA.
T21 chain: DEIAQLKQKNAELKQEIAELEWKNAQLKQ

Another test addresses T22, 4H118-bA.
T22 chain: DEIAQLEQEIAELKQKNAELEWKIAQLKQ

The next test concerns the target T23, 4H683-bA.
T23 chain: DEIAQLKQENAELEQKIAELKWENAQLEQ

The next test has as its target T24, 4H112-bA.
T24 chain: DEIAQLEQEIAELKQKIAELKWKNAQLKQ

In another test the target is T25, 4H780-bA.
T25 chain: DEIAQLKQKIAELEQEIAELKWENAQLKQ

The next test addresses T26, 4H1831-bA.
T26 chain: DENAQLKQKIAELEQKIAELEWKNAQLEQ

In the next test the target is T27, 4H4073-bA.
T27 chain: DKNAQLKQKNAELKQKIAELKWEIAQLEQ

The target in the next test is T28, 4H2702-bA.
T28 chain: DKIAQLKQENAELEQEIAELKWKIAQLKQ

The target of the next test is T29, 4H346-bA.
T29 chain: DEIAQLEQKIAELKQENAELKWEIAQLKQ

A further test deals with T30, 4H1158-bA.
T30 chain: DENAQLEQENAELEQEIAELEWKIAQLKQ

In another test the target is T31, 4H754-bA.
T31 chain: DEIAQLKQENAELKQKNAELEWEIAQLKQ

The target in a further test is T32, 4H457-bA.
T32 chain: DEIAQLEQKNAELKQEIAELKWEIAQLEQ

The next test deals with T33, O8-bH.
T33 chain: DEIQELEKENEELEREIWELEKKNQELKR

A further test has as its target T34, 4H170-bA.
T34 chain: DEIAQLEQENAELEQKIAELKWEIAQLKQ

In another test the target is T35, 4H855-bA.
T35 chain: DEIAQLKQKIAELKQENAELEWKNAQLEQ

The target in another test is T36, 4H2627-bA.
T36 chain: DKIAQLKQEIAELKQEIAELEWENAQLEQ

The target of another test is T37, 4H2673-bA.
T37 chain: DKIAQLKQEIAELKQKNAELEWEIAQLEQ

In the next test the target is T38, 4H3010-bA.
T38 chain: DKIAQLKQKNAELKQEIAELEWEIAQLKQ

A further test has as its target T39, 4H4038-bN.
T39 chain: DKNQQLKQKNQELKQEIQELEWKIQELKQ

The target in the next test is T40, 4H568-bN.
T40 chain: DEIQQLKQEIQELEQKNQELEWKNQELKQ

In the next test the target is T41, 4H953-bN.
T41 chain: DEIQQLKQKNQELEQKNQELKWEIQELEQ

Another test deals with T42, 4H2610-bN.
T42 chain: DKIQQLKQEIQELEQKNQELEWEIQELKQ

For the next test, the target named is T43, 4H1446-bN.
T43 chain: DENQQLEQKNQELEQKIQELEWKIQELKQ

The target in another test is T44, 4H72-bN.
T44 chain: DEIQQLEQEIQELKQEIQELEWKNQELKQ

In the next test the target is T45, 4H2697-bN.
T45 chain: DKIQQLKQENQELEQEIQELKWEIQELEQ

The target of a further test is T46, 4H687-bN.
T46 chain: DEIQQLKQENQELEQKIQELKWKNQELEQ

The target in a further test is T47, 4H331-bN.
T47 chain: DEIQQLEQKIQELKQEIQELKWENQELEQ

In another test the target is T48, 4H607-bN.
T48 chain: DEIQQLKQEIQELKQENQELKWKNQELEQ

In another test the target is T49, 4H4001-bN.
T49 chain: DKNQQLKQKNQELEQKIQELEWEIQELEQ

The next test deals with T50, 4H462-bN.
T50 chain: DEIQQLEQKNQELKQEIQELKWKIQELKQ

Another test has as its target T51, 4H3843-bN.
T51 chain: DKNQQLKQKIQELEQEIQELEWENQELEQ

The next test deals with T52, 4H967-bN.
T52 chain: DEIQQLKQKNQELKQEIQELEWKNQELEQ

A further test deals with T53, 4H3189-bN.
T53 chain: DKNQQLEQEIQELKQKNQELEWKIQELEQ

A further test addresses T54, 4H370-bN.
T54 chain: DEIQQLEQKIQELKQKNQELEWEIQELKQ

Another test has as its target T55, 4H2576-bN.
T55 chain: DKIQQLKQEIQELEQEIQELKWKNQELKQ

The next test addresses T56, 4H1193-bN.
T56 chain: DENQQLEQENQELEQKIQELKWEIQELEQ

Another test addresses T57, 4H1845-bN.
T57 chain: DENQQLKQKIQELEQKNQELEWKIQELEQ

The target of another test is T58, 4H1387-bN.
T58 chain: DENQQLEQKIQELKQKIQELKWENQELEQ

The target of the next test is T59, 4H797-bN.
T59 chain: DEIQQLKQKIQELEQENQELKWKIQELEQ

A further test addresses T60, 4H1328-bN.
T60 chain: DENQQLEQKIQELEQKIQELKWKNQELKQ

Another test deals with T61, 4H918-bN.
T61 chain: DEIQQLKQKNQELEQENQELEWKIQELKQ

The target in the next test is T62, 4H2667-bN.
T62 chain: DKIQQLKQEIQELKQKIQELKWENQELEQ

The target in another test is T63, 4H3606-bN.
T63 chain: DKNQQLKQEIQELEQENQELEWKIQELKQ

Another test addresses T64, 4H883-bN.
T64 chain: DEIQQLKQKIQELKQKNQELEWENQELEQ

A further test concerns the target T65, 4H1406-bN.
T65 chain: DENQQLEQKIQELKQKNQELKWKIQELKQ

The target of another test is T66, 4H3782-bN.
T66 chain: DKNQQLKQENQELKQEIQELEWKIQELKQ

The next test has as its target T67, 4H3601-bN.
T67 chain: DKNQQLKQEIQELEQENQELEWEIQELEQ

Another test addresses T68, 4H1369-bN.
T68 chain: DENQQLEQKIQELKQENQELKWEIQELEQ

A further test addresses T69, 4H3592-bN.
T69 chain: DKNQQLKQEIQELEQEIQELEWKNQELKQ

For the molecule DENKQLEKEIEELEREIWELEKKNEQLKQ [P11bH1], the interaction score in the test with P5bH1 is 1.1; with P9bH1, -0.076; with P2bH1, 1.25; with P1bH1, -2.02; with P8bH1, 0.239; with P4bH1 it was 1.12. For the same molecule, the interaction score in the test with P12bH1 is 0.0252; with P6bH1, 0.725; with P11bH1, 0; with P7bH1 it was -0.507; in the test with P3bH1 it was -0.0263.
With DEIAQLEQEIAELKQKIAELKWKNAQLKQ [4H112-bA], the interaction score with 4H3926-bA is 0.327; with 4H953-bA, 0.0535; in the test with 4H2586-bA, -0.329; with 4H3427-bA it was 1.34; with 4H3907-bN it was 1.94; with 4H918-bA, -1.12. For the same molecule, the interaction score with 4H3112-bA is 1.9; with 4H575-bA, -0.781; with 4H797-bA it was 0.104; with 4H968-bA it was 0.422; with 4H118-bA, -1.17; with 4H683-bA, 0.303. For the same molecule, the interaction score in the test with 4H112-bA is 2.02; in the test with 4H780-bA, -0.588; with 4H1831-bA, -0.538; in the test with 4H4073-bA it was 1.5; with 4H2702-bA it was 0.586; with 4H346-bA it was -0.491. Moreover, the interaction score with 4H1158-bA is 0.722; with 4H754-bA it was -0.627; with 4H457-bA it was 1.18; with O8-bH, -2.98; in the test with 4H170-bA it was 0.905; in the test with 4H855-bA, 0.496. Besides, the values for the interaction score with 4H2627-bA, with 4H2673-bA and with 4H3010-bA were 1.89, 1.17 and 1.69, respectively.
Take DENQQLEQENQELEQKIQELKWEIQELEQ [4H1193-bN]: the interaction score is -0.628 with 4H3907-bN; 1.89 with 4H4038-bN; -0.982 with 4H568-bN; -0.991 with 4H953-bN; -2.18 with 4H2610-bN; -0.688 with 4H1446-bN. The interaction score was -2.07 with 4H72-bN; -0.604 in the test with 4H2697-bN; -0.463 in the test with 4H687-bN; -1.06 in the test with 4H331-bN; -0.718 with 4H607-bN; -0.667 in the test with 4H4001-bN. Also, the interaction score with 4H462-bN was 1.11; with 4H3843-bN, -1.2; with 4H967-bN, -0.916; with 4H3189-bN it was -0.76; in the test with 4H370-bN, -1.1; with 4H2576-bN it was -2.2. Also, the interaction score with 4H1193-bN is -1.79; with 4H1845-bN, -0.197; in the test with 4H1387-bN it was -2.15; in the test with 4H797-bN, -0.958; with 4H1328-bN it was -0.785; in the test with 4H918-bN, -1.23. The interaction score was -1.42 with 4H2667-bN; -0.563 with 4H3606-bN; -0.365 with 4H883-bN; -0.457 with 4H1406-bN; 1.24 with 4H3782-bN; -0.788 with 4H3601-bN. Moreover, the interaction score with 4H1369-bN was -0.409; in the test with 4H3592-bN, -0.683.

The values above are taken from publication PMC10397247.
